Assay results published in US20240400708A1.
Positions count from the first letter of the chain named. Numbers in names are those of the source. Values belong to the binder of their own block, whether it stands above or below them.

Target: feline FcRn complex (FcRn-α subunit and β-microglobulin), biotin labeled (feline)
Experiment: SPR, pH 6

- Kd: 46.3 nM
B1: feline IgG1a S428G (antibody, part only; not given: Variable domains, not shown: another chain or arm of the molecule)
constant: ASTTAPSVFPLAPSCGTTSGATVALACLVLGYFPEPVTVSWNSGALTSGVHTFPAVLQASGLYSLSSMVTVPSSRWLSDTFTCNVAHPPSNTKVDKTVRKTDHPPGPKPCDCPKCPPPEMLGGPSIFIFPPKPKDTLSISRTPEVTCLVVDLGPDDSDVQITWFVDNTQVYTAKTSPREEQFNSTYRVVSVLPILHQDWLKGKEFKCKVNSKSLPSPIERTISKAKGQPHEPQVYVLPPAQEELSRNKVSVTCLIKSFHPPDIAVEWEITGQPEPENNYRTTPPQLDSDGTYFVYSKLSVDRSHWQRGNTYTCSVGHEALHSHHTQKSLTQSPGK

- Kd: 80.3 nM
B2: feline IgG1a S252W (antibody, part only; not given: Variable domains, not shown: another chain or arm of the molecule)
constant: B1 constant with S138W, G316S

- Kd: 38.3 nM
B3: feline IgG1a S428Q (antibody, part only; not given: Variable domains, not shown: another chain or arm of the molecule; small tags and cut ends)
constant: B1 constant with G316Q

- Kd: 154 nM
B4: feline IgG1a T256C (antibody, part only; not given: Variable domains, not shown: another chain or arm of the molecule)
constant: B1 constant with T142C, G316S

- Kd: 41.6 nM
B5: feline IgG1a S428H (antibody, part only; not given: Variable domains, not shown: another chain or arm of the molecule)
constant: B1 constant with G316H

- Kd: 55 nM
B6: feline IgG1a S252M (antibody, part only; not given: Variable domains, not shown: another chain or arm of the molecule)
constant: B1 constant with S138M, G316S

- Kd: 25.7 nM
B7: feline IgG1a S254N (antibody, part only; not given: Variable domains, not shown: another chain or arm of the molecule)
constant: B1 constant with S140N, G316S

- Kd: 57.6 nM
B8: feline IgG1a T256P (antibody, part only; not given: Variable domains, not shown: another chain or arm of the molecule)
constant: B1 constant with T142P, G316S

- Kd: 107 nM
B9: feline IgG1a T256K (antibody, part only; not given: Variable domains, not shown: another chain or arm of the molecule)
constant: B1 constant with T142K, G316S

- Kd: 40.6 nM
B10: feline IgG1a T256A (antibody, part only; not given: Variable domains, not shown: another chain or arm of the molecule)
constant: B1 constant with T142A, G316S

- Kd: 36.4 nM
B11: feline IgG1a S428W (antibody, part only; not given: Variable domains, not shown: another chain or arm of the molecule; small tags and cut ends)
constant: B1 constant with G316W

- Kd: 25.2 nM
B12: feline IgG1a T256W (antibody, part only; not given: Variable domains, not shown: another chain or arm of the molecule)
constant: B1 constant with T142W, G316S

- Kd: 27.7 nM
B13: feline IgG1a T256R (antibody, part only; not given: Variable domains, not shown: another chain or arm of the molecule)
constant: B1 constant with T142R, G316S

- Kd: 16.1 nM
B14: feline IgG1a S254T (antibody, part only; not given: Variable domains, not shown: another chain or arm of the molecule)
constant: B1 constant with S140T, G316S

- Kd: 22 nM
B15: feline IgG1a T256Y (antibody, part only; not given: Variable domains, not shown: another chain or arm of the molecule)
constant: B1 constant with T142Y, G316S

- Kd: 10.6 nM
B16: feline IgG1a S434T (antibody, part only; not given: Variable domains, not shown: another chain or arm of the molecule)
constant: B1 constant with G316S, S322T

- Kd: 21.5 nM
B17: feline IgG1a S254R (antibody, part only; not given: Variable domains, not shown: another chain or arm of the molecule)
constant: B1 constant with S140R, G316S

- Kd: 87.4 nM
B18: feline IgG1a T256H (antibody, part only; not given: Variable domains, not shown: another chain or arm of the molecule)
constant: B1 constant with T142H, G316S

- Kd: 18 nM
B19: feline IgG1a S428P (antibody, part only; not given: Variable domains, not shown: another chain or arm of the molecule; small tags and cut ends)
constant: B1 constant with G316P

- Kd: 21.8 nM
B20: feline IgG1a S428M (antibody, part only; not given: Variable domains, not shown: another chain or arm of the molecule)
constant: B1 constant with G316M

- Kd: 5.64 nM
B21: feline IgG1a S434P (antibody, part only; not given: Variable domains, not shown: another chain or arm of the molecule)
constant: B1 constant with G316S, S322P

- Kd: 81.5 nM
B22: feline IgG1a S428L (antibody, part only; not given: Variable domains, not shown: another chain or arm of the molecule)
constant: B1 constant with G316L

- Kd: 76.9 nM
B23: feline IgG1a T256G (antibody, part only; not given: variable domains and light chain, not shown: another chain or arm of the molecule)
constant: B1 constant with T142G, G316S

- Kd: 60.9 nM
B24: feline IgG1a S254W (antibody, part only; not given: Variable domains, not shown: another chain or arm of the molecule)
constant: B1 constant with S140W, G316S

- Kd: 40.8 nM
B25: feline IgG1a S428I (antibody, part only; not given: Variable domains, not shown: another chain or arm of the molecule)
constant: B1 constant with G316I

- Kd: 78.5 nM
B26: feline IgG1a S254Y (antibody, part only; not given: Variable domains, not shown: another chain or arm of the molecule)
constant: B1 constant with S140Y, G316S

- Kd: 6.94 nM
B27: feline IgG1a S434N (antibody, part only; not given: Variable domains, not shown: another chain or arm of the molecule)
constant: B1 constant with G316S, S322N

- Kd: 86.5 nM
B28: feline IgG1a T256L (antibody, part only; not given: Variable domains, not shown: another chain or arm of the molecule)
constant: B1 constant with T142L, G316S

- Kd: 2.8 nM
B29: feline IgG1a S434M (antibody, part only; not given: Variable domains, not shown: another chain or arm of the molecule)
constant: B1 constant with G316S, S322M

- Kd: 19.2 nM
B30: feline IgG1a S428V (antibody, part only; not given: Variable domains, not shown: another chain or arm of the molecule; small tags and cut ends)
constant: B1 constant with G316V

- Kd: 77.4 nM
B31: feline IgG1a T256N (antibody, part only; not given: Variable domains, not shown: another chain or arm of the molecule)
constant: B1 constant with T142N, G316S

- Kd: 19.5 nM
B32: feline IgG1a T256V (antibody, part only; not given: Variable domains, not shown: another chain or arm of the molecule)
constant: B1 constant with T142V, G316S

- Kd: 8.67 nM
B33: feline IgG1a S434L (antibody, part only; not given: Variable domains, not shown: another chain or arm of the molecule)
constant: B1 constant with G316S, S322L

- Kd: 42.9 nM
B34: feline IgG1a S428N (antibody, part only; not given: Variable domains, not shown: another chain or arm of the molecule; small tags and cut ends)
constant: B1 constant with G316N

- Kd: 27.3 nM
B35: feline IgG1a S428T (antibody, part only; not given: Variable domains, not shown: another chain or arm of the molecule; small tags and cut ends)
constant: B1 constant with G316T

- Kd: 115 nM
B36: feline IgG1a T256I (antibody, part only; not given: Variable domains, not shown: another chain or arm of the molecule)
constant: B1 constant with T142I, G316S

- Kd: 244 nM
B37: feline IgG1a T256D (antibody, part only; not given: Variable domains, not shown: another chain or arm of the molecule)
constant: B1 constant with T142D, G316S

- Kd: 50.9 nM
B38: feline IgG1a T256E (antibody, part only; not given: variable domains and light chain, not shown: another chain or arm of the molecule)
constant: B1 constant with T142E, G316S

- Kd: 19.3 nM
B39: feline IgG1a T256M (antibody, part only; not given: Variable domains, not shown: another chain or arm of the molecule)
constant: B1 constant with T142M, G316S

- Kd: 70.2 nM
B40: feline IgG1a S428K (antibody, part only; not given: Variable domains, not shown: another chain or arm of the molecule)
constant: B1 constant with G316K

- Kd: 24.7 nM
B41: feline IgG1a S254Q (antibody, part only; not given: Variable domains, not shown: another chain or arm of the molecule)
constant: B1 constant with S140Q, G316S

- Kd: 68.6 nM
B42: feline IgG1a S428R (antibody, part only; not given: Variable domains, not shown: another chain or arm of the molecule; small tags and cut ends)
constant: B1 constant with G316R

- Kd: 58.6 nM
B43: feline IgG1a T256Q (antibody, part only; not given: Variable domains, not shown: another chain or arm of the molecule)
constant: B1 constant with T142Q, G316S
